Measured values from patent US20190309055A1 (NORDIC BIOSCIENCE A S, published 2019).

Key:
[1] = biological target: T1, truncated peptide KPGVISVMG; test: competitive ELISA, serial 2-fold dilutions of peptide
T1 peptide: KPGVISVMG

[2] = biological target: T2, elongated peptide KPGVISVMGTA; test: as above
T2 peptide: KPGVISVMGTA

[3] = biological target: T3, standard peptide KPGVISVMGT (last 10 amino acids of the type VI collagen α3 chain, 3168-3177); test: competitive ELISA, peptide specificity test
T3 construct: also called STD peptide; immunogenic peptide
T3 peptide: KPGVISVMGT

binding result [1]: no binding
binding result [2]: no binding
binding result [3]: binds
B1: monoclonal antibody 10A3 (antibody, mouse IgG1, kappa, V domains shown)
VH: EVQLQQSGPVMVKPGTSVKTSCKASGYTFTDFNMNWVKQSHGKSLEWIGAINPHNGATSYNQKFSGKATLTVDKSSSTAYMELNSLTSDDSAVYYCARWGNGKNSWGQGTTLTVSS
VL: DVVMTQTPLSLPVNLGDQASISCRSSQRIVHSNGITFLEWYLQKPGQSPKLLIYRVSNRFSGVPDRFSGSGSGTDFTLKISRVEAEDLGLYYCFQGSHVPLTFGAGTRLELKR
notes: Mouse IgG1/kappa from hybridoma; also called the chosen antibody; HRP conjugated monoclonal antibody 10A3
